Data as given in patent US7271238.

B1: 25,28,29Pro-h-Amylin (peptide)
peptide: KCNTATCATQRLANFLVHSSNNFGPILPPTNVGSNTY
modifications: 2,7-disulfide; made on methylbenzhydrylamine resin (C-terminal amide not spelled out)

Target: amylin receptors (rat basal forebrain membranes, containing the nucleus accumbens and surrounding regions) (rat)
Test: competition radioligand binding, displacement of 125I-rat amylin from rat basal forebrain membranes

Row | Molecule | IC50
1 | 28Pro-human-Amylin (peptide) | 0.015 nM
2 | B1 | 0.01 nM
